Measurements from PMC12421854.

What was measured:
[1] = target: ForJ (Streptomyces formicae); test: mass photometry; ReFeyn mass photometry of purified ForJ reduced with TCEP; monomers to dimer
[2] = target: ForJ (Streptomyces formicae); test: non-reducing SDS-PAGE; purified ForJ exposed to increasing DTT; no beta-mercaptoethanol and no boiling before loading; monomers and dimers
[3] = target: ForJ (Streptomyces formicae); test: non-reducing SDS-PAGE; purified ForJ exposed to increasing H2O2; no beta-mercaptoethanol and no boiling before loading; dimers to dimer of dimers
[4] = target: ForJ (Streptomyces formicae); test: mass photometry; ReFeyn mass photometry of purified ForJ without reducing agent (oxidized); 38 kDa and 76 kDa states both present; dimers to dimer of dimers

stoichiometry N [1]: 2
stoichiometry N [2]: 2
stoichiometry N [3]: 4
stoichiometry N [4]: 4
Substance: ForJ (natural protein)
